Assay results as given in publication doi:10.1101/2023.05.26.542337 (bioRxiv, 2023).

Target: the molecule itself
Assay: cryo-EM structure

B1: Cas1 (type I-F, Pseudomonas aeruginosa PA14) (enzyme)
chain: MDDISPSELKTILHSKRANLYYLQHCRVLVNGGRVEYVTDEGRHSHYWNIPIANTTSLLLGTGTSITQAAMRELARAGVLVGFCGGGGTPLFSANEVDVEVSWLTPQSEYRPTEYLQRWVGFWFDEEKRLVAARHFQRARLERIRHSWLEDRVLRDAGFAVDATALAVAVEDSARALEQAPNHEHLLTEEARLSKRLFKLAAQATRYGEFVRAKRGSGGDPANRFLDHGNYLAYGLAATATWVLGIPHGLAVLHGKTRRGGLVFDVADLIKDSLILPQAFLSAMRGDEEQDFRQACLDNLSRAQALDFMIDTLKDVAQRSTVSA
Question: Does B1 bind?
Answer: Result: binds

B2: Cas2/3 (fusion of Cas2 to the Cas3 nuclease/helicase, type I-F, Pseudomonas aeruginosa PA14) (enzyme)
chain: MNILLVSQCEKRALSETRRILDQFAERRGERTWQTPITQAGLDTLRRLLKKSARRNTAVACHWIRGRDHSELLWIVGDASRFNAQGAVPTNRTCRDILRKEDENDWHSAEDIRLLTVMAALFHDIGKASQAFQAKLRNRGKPMADAYRHEWVSLRLFEAFVGPGSSDEDWLRRLADKRETGDAWLSQLARDDRQSAPPGPFQKSRLPPLAQAVGWLIVSHHRLPNGDHRGSASLARLPAPIQSQWCGARDADAKEKAACWQFPHGLPFASAHWRARTALCAQSMLERPGLLARGPALLHDSYVMHVSRLILMLADHHYSSLPADSRLGDPNFPLHANTDRDSGKLKQRLDEHLLGVALHSRKLAGTLPRLERQLPRLARHKGFTRRVEQPRFRWQDKAYDCAMACREQAMEHGFFGLNLASTGCGKTLANGRILYALADPQRGARFSIALGLRSLTLQTGQAYRERLGLGDDDLAILVGGSAARELFEKQQERLERSGSESAQELLAENSHVHFAGTLEDGPLREWLGRNSAGNRLLQAPILACTIDHLMPASESLRGGHQIAPLLRLMTSDLVLDEVDDFDIDDLPALSRLVHWAGLFGSRVLLSSATLPPALVQGLFEAYRSGREIFQRHRGAPGRATEIRCAWFDEFSSQSSAHGAVTSFSEAHATFVAQRLAKLEQLPPRRQAQLCTVHAAGEARPALCRELAGQMNTWMADLHRCHHTEHQGRRISFGLLRLANIEPLIELAQAILAQGAPEGLHVHLCVYHSRHPLLVRSAIERQLDELLKRSDDDAAALFARPTLAKALQASTERDHLFVVLASPVAEVGRDHDYDWAIVEPSSMRSIIQLAGRIRRHRSGFSGEANLYLLSRNIRSLEGQNPAFQRPGFETPDFPLDSHDLHDLLDPALLARIDASPRIVEPFPLFPRSRLVDLEHRRLRALMLADDPPSSLLGVPLWWQTPASLSGALQTSQPFRAGAKERCYALLPDEDDEERLHFSRYEEGTWSNQDNLLRNLDLTYGPRIQTWGTVNYREELVAMAGREDLDLRQCAMRYGEVRLRENTQGWSYHPYLGFKKYN
Question: Does B2 bind?
Answer: Result: binds
